Measurements reported in PMC6108940 (Cell, 2018).

Columns and labels:
[1] = biological target: yeast COMPASS catalytic module (Set1-Swd1-Swd3-Bre2-Sdc1) (Kluyveromyces lactis, UniProt Q6CIT4); assay: H3K4 methylation of nucleosomes, western blot; type: biochemical; details: 0.2 mM SAM, 1 uM enzyme, 0.5 uM nucleosomes, pH 7.5, 30 C, 30 min
[2] = biological target: K. lactis Bre2 (crystallised construct) (K. lactis); assay: crystal structure
[3] = biological target: K. lactis Sdc1 (crystallised construct) (K. lactis); assay: crystal structure

## C[S+](CC[C@H](N)C(=O)O)C[C@H]1O[C@@H](n2cnc3c(N)ncnc32)[C@H](O)[C@@H]1O (stereo partly drawn) [SAM]
[1]
  H3K4 methylation of nucleosomes, western blot: alanine mutation of Trp197 drastically compromised the catalytic activity of Set1

## K. lactis Sdc1 (crystallised construct) (natural protein)
[2]
  stoichiometry N: 2
[3]
  stoichiometry N: 2
